Measurements from publication PMC8137598.

Molecular target: full-length A82F variant of CYP102A1 with an N-terminal His6 tag (Bacillus megaterium) (UniProt P14779)
Test: SEC-MALS

## full-length A82F variant of CYP102A1 with an N-terminal His6 tag (from UniProt P14779 1-1049) (enzyme)
  stoichiometry N: 2
